Test results reported in patent US20220251186A1 (TAVOTEK BIOTHERAPEUTICS HONG KONG, published 2022).
Blank lines part the entries; values can stand above or below the binder they belong to.

Legend:
[1] = target: T1, recombinant human TSLP (R&D Systems) (human, UniProt Q969D9 29-159); experiment: ELISA, plate coated with 1 µg/mL recombinant human TSLP, antibody titrated, HRP-conjugated secondary antibody, OD 450 nm
T1 construct: also called thymic stromal lymphopoietin

[2] = target: T2, Cynomolgus monkey TSLP (Cynomolgus monkey, UniProt A0A7N9CAT7 29-159); experiment: ELISA, plate coated with cynomolgus monkey TSLP, antibody titrated, OD 450 nm
T2 construct: also called cynomolgus TSLP

[3] = target: T3, mouse TSLP (R&D Systems) (mouse, UniProt Q9JIE6 20-140); experiment: ELISA, plate coated with mouse TSLP, antibody titrated, HRP-conjugated anti-mouse secondary antibody, OD 450 nm
T3 sequence (looked up): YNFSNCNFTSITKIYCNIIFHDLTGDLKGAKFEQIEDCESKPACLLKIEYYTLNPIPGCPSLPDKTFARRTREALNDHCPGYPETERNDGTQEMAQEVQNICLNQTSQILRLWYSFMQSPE

[4] = target: T1, recombinant human TSLP (R&D Systems); experiment: ELISA, 1 µg/mL recombinant human TSLP coated, HRP anti-mouse detection
[5] = target: T1, recombinant human TSLP (R&D Systems); experiment: cell-based or functional assay
[6] = target: T4, recombinant mouse FcRn (R&D Systems) (mouse, UniProt Q61559 22-297; P01887 21-119, limits assumed); experiment: ELISA at pH 6.0, 1 µg/mL recombinant mouse FcRn coated, HRP anti-human detection
T4 sequence (looked up) 1: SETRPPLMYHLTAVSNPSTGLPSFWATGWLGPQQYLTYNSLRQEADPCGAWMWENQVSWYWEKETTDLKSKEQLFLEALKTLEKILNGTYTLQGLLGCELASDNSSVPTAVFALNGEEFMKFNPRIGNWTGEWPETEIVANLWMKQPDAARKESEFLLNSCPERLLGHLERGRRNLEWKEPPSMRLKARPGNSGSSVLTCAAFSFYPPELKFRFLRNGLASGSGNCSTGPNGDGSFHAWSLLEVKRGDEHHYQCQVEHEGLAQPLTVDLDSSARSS
T4 sequence (looked up) 2: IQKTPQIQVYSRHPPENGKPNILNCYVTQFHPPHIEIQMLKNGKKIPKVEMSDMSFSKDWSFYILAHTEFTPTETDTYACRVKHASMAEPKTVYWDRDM
Protocol: 1 μg/mL recombinant mouse FcRn (R&D Systems) were coated on ELISA plate.

EC50 (read off the curve) [1]: ~2 ng/mL
B1: TAVO6264 (antibody, human IgG2, kappa)
heavy: QVQLVQSGAEVKKPGSSVKVSCKASGYTFSSYWVNWVRQAPGQGLEWIGQIYPGDGDTDYAQKFQGRATLTADKSTSTAYMELSSLRSEDTAVYFCARGTYYNNYYGTDYWGQGTTVTVSSASTKGPSVFPLAPCSRSTSESTAALGCLVKDYFPEPVTVSWNSGALTSGVHTFPAVLQSSGLYSLSSVVTVPSSNFGTQTYTCNVDHKPSNTKVDKTVERKCCVECPPCPAPPVAGPSVFLFPPKPKDTLMISRTPEVTCVVVDVSHEDPEVQFNWYVDGVEVHNAKTKPREEQFNSTFRVVSVLTVVHQDWLNGKEYKCKVSNKGLPAPIEKTISKTKGQPREPQVYTLPPSREEMTKNQVSLTCLVKGFYPSDIAVEWESNGQPENNYKTTPPMLDSDGSFFLYSKLTVDKSRWQQGNVFSCSVMHEALHNHYTQKSLSLSPGK
light: DIQLTQSPSFLSASVGDRVTITCSVSSSISSSNLHWYQQKPGKAPKPWIYGTSNLASGVPSRFSGSGSGTEYTLTISSLQPEDAATYYCQQWSSYPLTFGQGTKLEIKRTVAAPSVFIFPPSDEQLKSGTASVVCLLNNFYPREAKVQWKVDNALQSGNSQESVTEQDSKDSTYSLSSTLTLSKADYEKHKVYACEVTHQGLSSPVTKSFNRGEC
notes: Human IgG2 Fc; also called humanized TAVO202 antibody 202H2/202L3 with human IgG2 Fc

EC50 (read off the curve) [1]: ~2 ng/mL
B2: TAVO6265 (antibody, human IgG2, kappa)
heavy: QVQLVQSGAEVKKPGSSVKVSCKASGYTFSSYWVNWVRQAPGQGLEWIGQIYPGDGDTDYAQKFQGRATLTADKSTSTAYMELSSLRSEDTAVYFCARGTYYNNYYGTDYWGQGTTVTVSSASTKGPSVFPLAPCSRSTSESTAALGCLVKDYFPEPVTVSWNSGALTSGVHTFPAVLQSSGLYSLSSVVTVPSSNFGTQTYTCNVDHKPSNTKVDKTVERKCCVECPPCPAPPVAGPSVFLFPPKPKDTLMISRTPEVTCVVVDVSHEDPEVQFNWYVDGVEVHNAKTKPREEQFNSTFRVVSVLTVVHQDWLNGKEYKCKVSNKGLPAPIEKTISKTKGQPREPQVYTLPPSREEMTKNQVSLTCLVKGFYPSDIAVEWESNGQPENNYKTTPPMLDSDGSFFLYSKLTVDKSRWQQGNVFSCSVMHEALHNHYTQKSLSLSPGK
light: EIVLTQSPDFQSVTPKEKVTITCSVSSSISSSNLHWYQQKPDQSPKPWIYGTSNLASGVPSRFSGSGSGTDYTLTINSLEAEDAATYYCQQWSSYPLTFGQGTKLEIKRTVAAPSVFIFPPSDEQLKSGTASVVCLLNNFYPREAKVQWKVDNALQSGNSQESVTEQDSKDSTYSLSSTLTLSKADYEKHKVYACEVTHQGLSSPVTKSFNRGEC
notes: Human IgG2 Fc; also called humanized TAVO202 antibody 202H2/202L4 with human IgG2 Fc

binding result [2]: no binding (tested: 1 µg/mL)
B3: TAVO7264 (antibody, human IgG1, kappa)
heavy: QVQLVQSGAEVKKPGSSVKVSCKASGYTFSSYWVNWVRQAPGQGLEWIGQIYPGDGDTDYAQKFQGRATLTADKSTSTAYMELSSLRSEDTAVYFCARGTYYNNYYGTDYWGQGTTVTVSSASTKGPSVFPLAPSSKSTSGGTAALGCLVKDYFPEPVTVSWNSGALTSGVHTFPAVLQSSGLYSLSSVVTVPSSSLGTQTYICNVNHKPSNTKVDKKVEPKSCDKTHTCPPCPAPEFEGGPSVFLFPPKPKDTLMISRTPEVTCVVVAVSHEDPEVKFNWYVDGVEVHNAKTKPREEQYNSTYRVVSVLTVLHQDWLNGKEYKCKVSNKALPAPIEKTISKAKGQPREPQVYTLPPSREEMTKNQVSLTCLVKGFYPSDIAVEWESNGQPENNYKTTPPVLDSDGSFLLYSKLTVDKSRWQQGNVFSCSVMHEALHNHYTQKSLSLSPGK
light: DIQLTQSPSFLSASVGDRVTITCSVSSSISSSNLHWYQQKPGKAPKPWIYGTSNLASGVPSRFSGSGSGTEYTLTISSLQPEDAATYYCQQWSSYPLTFGQGTKLEIKRTVAAPSVFIFPPSDEQLKSGTASVVCLLNNFYPREAKVQWKVDNALQSGNSQESVTEQDSKDSTYSLSSTLTLSKADYEKHKVYACEVTHQGLSSPVTKSFNRGEC
notes: also called humanized TAVO202 antibody 202H2/202L3 with human IgG1 Fc (L234F, L235E, D265A, F405L)

binding result [3]: no binding (tested: about 5 µg/mL)
EC50 [4]: 2.4 ng/mL
IC50, neutralization of TSLP-driven STAT5 luciferase reporter gene expression (10 ng/mL human TSLP) [5]: 20 ng/mL
IC50, neutralization of TSLP-driven proliferation of transfected BAF3 cells (0.5 ng/mL human TSLP) [5]: 6.6 ng/mL
B4: mouse monoclonal anti-human TSLP antibody TAVO202 (antibody, V domains shown)
VH: QVQLQQSGAELVRPGSSVKISCKASGYTFSSYWVNWVKQRPGQGLEWIGQIYPGDGDTDYNGKFKGKATLTADKSSSTAYMQLSSLTSEDSAVYFCARGTYYNNYYGTDYWGQGTSVTVSS
VL: EIVLTQSPALMAASPGEKVTITCSVSSSISSSNLHWYQQKSETSPKPWIYGTSNLASGVPVRFSGSGSGTSYSLTISSMEAEDAATYYCQQWSSYPLTFGGGTKLEIK
notes: Mouse monoclonal antibody from hybridoma screening; also called mouse anti-TSLP antibody TAVO202

fold better potency than TAVO7265 [6]: ~10 fold
B5: TAVO9765 (antibody, human IgG1, kappa, L234A L235A)
heavy: QVQLVQSGAEVKKPGSSVKVSCKASGYTFSSYWVNWVRQAPGQGLEWIGQIYPGDGDTDYAQKFQGRATLTADKSTSTAYMELSSLRSEDTAVYFCARGTYYNNYYGTDYWGQGTTVTVSSASTKGPSVFPLAPSSKSTSGGTAALGCLVKDYFPEPVTVSWNSGALTSGVHTFPAVLQSSGLYSLSSVVTVPSSSLGTQTYICNVNHKPSNTKVDKKVEPKSCDKTHTCPPCPAPEAAGGPSVFLFPPKPKDTLMISRTPEVTCVVVDVSHEDPEVKFNWYVDGVEVHNAKTKPREEQYNSTYRVVSVLTVLHQDWLNGKEYKCKVSNKALPAPIEKTISKAKGQPREPQVYTLPPSREEMTKNQVSLTCLVKGFYPSDIAVEWESNGQPENNYKTTPPVLDSDGSFFLYSKLTVDKSRWQQGNVFSCSVLHEALHSHYTQKSLSLSPGK
light: EIVLTQSPDFQSVTPKEKVTITCSVSSSISSSNLHWYQQKPDQSPKPWIYGTSNLASGVPSRFSGSGSGTDYTLTINSLEAEDAATYYCQQWSSYPLTFGQGTKLEIKRTVAAPSVFIFPPSDEQLKSGTASVVCLLNNFYPREAKVQWKVDNALQSGNSQESVTEQDSKDSTYSLSSTLTLSKADYEKHKVYACEVTHQGLSSPVTKSFNRGEC
notes: also called humanized TAVO202 antibody 202H2/202L4 with human IgG1 Fc (L234A, L235A, M428L, N434S)

binding result [2]: no binding (tested: 1 µg/mL)
B6: TAVO7265 (antibody, human IgG1, kappa)
heavy: QVQLVQSGAEVKKPGSSVKVSCKASGYTFSSYWVNWVRQAPGQGLEWIGQIYPGDGDTDYAQKFQGRATLTADKSTSTAYMELSSLRSEDTAVYFCARGTYYNNYYGTDYWGQGTTVTVSSASTKGPSVFPLAPSSKSTSGGTAALGCLVKDYFPEPVTVSWNSGALTSGVHTFPAVLQSSGLYSLSSVVTVPSSSLGTQTYICNVNHKPSNTKVDKKVEPKSCDKTHTCPPCPAPEFEGGPSVFLFPPKPKDTLMISRTPEVTCVVVAVSHEDPEVKFNWYVDGVEVHNAKTKPREEQYNSTYRVVSVLTVLHQDWLNGKEYKCKVSNKALPAPIEKTISKAKGQPREPQVYTLPPSREEMTKNQVSLTCLVKGFYPSDIAVEWESNGQPENNYKTTPPVLDSDGSFLLYSKLTVDKSRWQQGNVFSCSVMHEALHNHYTQKSLSLSPGK
light: EIVLTQSPDFQSVTPKEKVTITCSVSSSISSSNLHWYQQKPDQSPKPWIYGTSNLASGVPSRFSGSGSGTDYTLTINSLEAEDAATYYCQQWSSYPLTFGQGTKLEIKRTVAAPSVFIFPPSDEQLKSGTASVVCLLNNFYPREAKVQWKVDNALQSGNSQESVTEQDSKDSTYSLSSTLTLSKADYEKHKVYACEVTHQGLSSPVTKSFNRGEC
notes: also called humanized TAVO202 antibody 202H2/202L4 with human IgG1 Fc (L234F, L235E, D265A, F405L)
